The test system of one series is baboons (Papio anubis). As to the kind of experiment: Vascular graft occlusion studies, collagen coated 2 mm i.d. grafts, high arterial shear. The series is classed as in vivo, baboon (Papio anubis). As to conditions: 2 mm i.d. grafts. The procedure: Thrombus formation was initiated within the baboon AV shunt by interposing a thrombogenic segment of prosthetic vascular graft (ePTFE, WL Gore & Co., Flagstaff, Ariz.), as previously described (Hanson et al. (1993) J. Clin. Invest. 92:2003-2012). To consistently trigger platelet-dependent thrombus formation, the clinical graft segments were coated with immobilized collagen. Twenty mm long grafts having internal diameters (i.d.) of either 2 or 4 mm were filled with equine type I collagen (1 mg/ml; Nycomed Arzenmittel, Munich, Germany) for 15 min, and then dried overnight under sterile airflow. This method produced a uniform collagen coating within the graft lumen as determined by scanning electron microscopy (FIGS. 1B and 1C). The thrombogenic collagen-coated grafts were then incorporated between segments of silicon rubber tubing, and deployed into the AV shunts (FIG. 1A). The grafts were exposed to blood for up to 60 min. During each experiment, the blood flow rate through the graft was restricted to 100 ml/min by clamping the proximal silicone rubber shunt segment, thereby producing a mean wall shear rate (MWSR) in the 4 mm grafts of 265 s^−1, while in the 2 mm grafts the initial MWSR was 2120 s^−1. Flow rates were continuously monitored using an ultrasonic flow meter (Transonics Systems, Ithaca, N.Y.). […] Baseline blood flow was restored through the permanent shunt after each experiment. In the 2 mm diameter grafts blood flow rates progressively declined due to thrombus formation. The grafts were removed from the AV shunts when the flow rate fell from 100 ml/min to below 20 ml/min, signaling imminent occlusion. The time from initiation of blood flow to graft removal (<20 ml/min blood flow) was taken as the occlusion time.
Occlusion studies were performed using 10 mm long 2 mm i.d. collagen coated devices which produced high arterial shear rates (2120 s^−1 at 100 ml/min clamped blood flow). Accumulation of labeled platelets onto 2 mm thrombogenic grafts were measured in 3-min intervals using a gamma scintillation camera. Flow was maintained at 100 ml/min by proximal clamping for as long as possible, and then allowed to decrease as the propagating thrombus began to occlude the device. A final blood flow rate of 20 ml/min was used as a cutoff for occlusion, since a fully occlusive thrombi and lack of blood flow through the device could lead to occlusion of the shunt and a significant loss of blood for the animals.
Since aspirin is a less antihemostatic agent than heparin, and it is often included in the standard treatment of arterial-type platelet-dependent thrombosis, ASA was used in the current studies with the occlusion-prone 2 mm i.d. grafts as a long-acting positive control. ASA (32 mg/kg) was administered orally 2-4 h before each thrombosis experiment, as described previously (Hanson et al. (1985) J. Clin. Invest. 75:1591-1599). Four weeks were allowed for washout of each aXIMab and ASA before performing new experiments in the same animal.

Series [1] concerns normal human plasma (NHP). The series is described as follows: aPTT and PT in normal human plasma in vitro. The series is classed as biochemical. As to conditions: 0-40 nM.
The next series concerns the target Prekallikrein (PK) (Homo sapiens, UniProt P03952). The series is described as follows: Western blot binding to prekallikrein. On the procedure:
Comparative binding studies for monoclonal antibody 1A6 were conducted using FXI, Prekallikrein (PK), and FXI/PK chimeras involving either the substitution FXI domains with PK domains (FIG. 9) or the substitution of PK domains with FXI domains (FIG. 10).
(In western blotting, separated proteins are transferred to a membrane and probed.)

For the next series, the system named is FXI. As to the kind of experiment: Pilot experiment: FXI:Ag, FXI inhibitor and FXI procoagulant activity after aXIMab in a single baboon. The series is classed as in vivo. On the procedure: The maximum achievable prolongation of the aPTT was about 2.5 fold. FXI:Ag was measured by ELISA using goat anti-human FXI polyclonal capture and detection (horseradish peroxidase conjugated [HRP]) antibodies (Affinity Biologicals, Hamilton, Ontario), which also recognized baboon FXI and its complex with aXIMab. A standard curve was constructed with serial dilutions of NBP, and FXI concentrations were determined in percentage of NBP. Western blots for FXI were performed by size fractionation of 1 μl samples of plasma under non-reducing conditions on 7.5% polyacrylamide-SDS gels, followed by transfer to PVDF membranes. Detection was with a goat-anti-human FXI polyclonal antibody conjugated to HRP and chemiluminescence.

Experimental findings from patent US10577428B2, “Anti-factor XI monoclonal antibodies and methods of use thereof” (Oregon Health & Science University, priority 2007, dated 2020) are described below.

Entries after “also recorded” stand apart in the source; their conditions may differ. A value given as a limit tells only on which side of the number the result lay.

Prekallikrein (PK), sequence (P03952 20-638): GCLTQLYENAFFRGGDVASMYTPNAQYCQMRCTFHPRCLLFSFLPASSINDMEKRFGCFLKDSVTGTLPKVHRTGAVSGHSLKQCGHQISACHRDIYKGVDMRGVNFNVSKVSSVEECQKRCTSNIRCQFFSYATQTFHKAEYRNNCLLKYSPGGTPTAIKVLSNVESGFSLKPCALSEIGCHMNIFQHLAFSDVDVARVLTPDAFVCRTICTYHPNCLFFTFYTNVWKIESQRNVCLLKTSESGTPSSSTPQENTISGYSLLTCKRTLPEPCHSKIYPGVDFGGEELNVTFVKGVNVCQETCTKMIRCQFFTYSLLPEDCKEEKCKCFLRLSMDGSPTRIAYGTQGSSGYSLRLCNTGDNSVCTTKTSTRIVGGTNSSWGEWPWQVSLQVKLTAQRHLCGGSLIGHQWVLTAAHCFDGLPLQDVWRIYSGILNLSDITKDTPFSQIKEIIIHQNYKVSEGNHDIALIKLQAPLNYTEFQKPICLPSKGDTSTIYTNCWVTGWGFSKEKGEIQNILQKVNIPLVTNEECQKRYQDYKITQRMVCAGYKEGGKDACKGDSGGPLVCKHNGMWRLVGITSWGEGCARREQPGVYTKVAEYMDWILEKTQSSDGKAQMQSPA

B1: aXIMab: neutralizing murine IgG/kappa anti-human FXI monoclonal antibody from hybridoma 1A6; binds A3 domain; VH SEQ ID NO:3, VL SEQ ID NO:5 (antibody, listed as Mus musculus, V domains shown)
VH: QVTLKESGPGILKPSQTLSLTCSFSGFSLSTSGMGVGWIRQPSGKGLEWLAHIWWDDDKYYNPSLKSQLTISKDTSRNQVFLKITSVDAADTATYYCARKRSSVVAHYYAMDYWGQGTSVTVSS
VL: DIVLTQSPASLAVSLGQRATISCKASQSVDYDGDSYLNWYQQKPGQPPKLLIYAASNLESGIPARFSGSGSGTDFTLNIHPVEEEDAATYYCQQSNGDPWTFGGGTKLEIK
In the case of B1, in the series on baboons (Papio anubis), the “initial platelet accumulation rate versus vehicle” value is on record as “similar”. Moreover, the thrombus stability entry in the series with baboons (Papio anubis) (2120 s^-1) is recorded as “unstable; also recorded: profoundly reduced”. Besides, in the series on baboons (Papio anubis) (60 min), the Number occluded is listed as 0/5. In addition, the graft occlusion entry with baboons (Papio anubis) (60 min-long studies (FIG. 5)) is “did not occlude the grafts”. For the same molecule, the “time after initiation of blood perfusion when growth rate of platelet thrombus was reduced” value in the series with baboons (Papio anubis) (all treated animals) lay in the range of 12 to 15 min. In the series on baboons (Papio anubis) (mean ± SEM), the “Embolic events per experiment” value was 6.6 ± 0.9. Further, the “Fibrin deposition” value in the series on baboons (Papio anubis) (mean ± SEM, control 0.30 ± 0.04) came to 0.18 ± 0.02 mg. In addition, the grafts remained patent in the series on baboons (Papio anubis) (over 60 min) is reported as 5 of 5. For the same molecule, in series [1], the “prothrombin time (PT)” value is on record as “without affecting”. Further, the “activated partial thromboplastin time (aPTT)” value in series [1] (concentration-dependent) is listed as “prolonged”. Moreover, the “binding to PK” value in the series with Prekallikrein (PK) is listed as “did not bind”. For the same molecule, the “FXI:Ag levels” value in the series with FXI (1 h after 2 mg/kg, single baboon, baseline 110%) is recorded as 40 % of NBP levels; in the series on FXI (day 8 post-infusion, 2 mg/kg, single baboon) it was 300 % of control. Moreover, the FXI activity in the series with FXI (1 h after 2 mg/kg, single baboon, baseline 125%) is recorded as less than 1%; with FXI (day 27, 2 mg/kg, single baboon), 136%. Also, the “Maximum circulating FXI inhibitor levels (Bethesda assay)” value in the series on FXI (1 h post infusion, 2 mg/kg, single baboon) was 72 Bethesda units [BU]. Further, the “circulating FXI inhibitor levels (Bethesda assay)” value in the series on FXI (by day 15, 2 mg/kg, single baboon) was less than 0.6 BU. Further, the “Plasma FXI antigen” value is recorded as 130% in the series on FXI (day 27, 2 mg/kg, single baboon) and “above 200 % of control” with FXI (through day 15, 2 mg/kg, single baboon). The “total FXI:Ag levels” value in the series on FXI (following the disappearance of FXI activity) is listed as “temporarily increased several-fold above baseline”. This molecule also registered an FXI activity inhibited in the series on FXI (for 10 days after administration, 2 mg/kg, single baboon) greater than 99%. In addition, the “free FXI:Ag” value with FXI (for over a week following injection) is on record as less than 1%. In the series on FXI (in vivo), the “maximum achievable prolongation of the aPTT” value was “about 2.5 fold”.
